Molecular target: YB-1 (DNA-binding protein) (Homo sapiens, UniProt P67809 SEQ:1-317)
Assay: EMSA; 200 ng protein, 1 ug poly dI-dC, on ice 30 min
Conditions: tags: His tag (pET-28a(+), Ni-NTA purified from E. coli BL21-GOLD(DE3)); label: 32P 5' end
Procedure: An oligonucleotide consisting of the nucleotide sequence represented by SEQ ID No:.3 was mixed with an oligonucleotide consisting of the nucleotide sequence complementary with its nucleotide sequence, and this oligonucleotide mixture was boiled for 5 minutes and then allowed to stand at room temperature. Then this oligonucleotide mixture in an amount corresponding to 10 pmol DNA, 2 μl of a T4 kinase buffer, 1 μl of T4 kinase and 6 μl of γ-³²P-ATP(>3000 Ci/mmol, DAIICHI KAGAKU YAKUHIN, Catalog No.NEG-502A) were mixed with distilled water to make the total volume 20 μl, which was then kept at 37° C. for 1 hour. This mixture was loaded onto Quick Spin Column G-25 (Boehringer, Catalog No.1273949). This column was centrifuged (2,500 rpm, 5 minutes), and the effluent was recovered. The effluent thus recovered was subjected to a 10% polyacrylamide gel electrophoresis to recover a gel portion containing a ³²P-labelled double-stranded DNA. the gel portion thus recovered was combined with distilled water, kept at 37° C. over one whole day and night, and extracted to obtain the ³²P-labelled DNA (hereinafter referred to as the binding probe). Thus the binding probe was prepared. […]

YB-1 (DNA-binding protein), sequence (P67809 other isoform, or with tags, fused parts or gaps): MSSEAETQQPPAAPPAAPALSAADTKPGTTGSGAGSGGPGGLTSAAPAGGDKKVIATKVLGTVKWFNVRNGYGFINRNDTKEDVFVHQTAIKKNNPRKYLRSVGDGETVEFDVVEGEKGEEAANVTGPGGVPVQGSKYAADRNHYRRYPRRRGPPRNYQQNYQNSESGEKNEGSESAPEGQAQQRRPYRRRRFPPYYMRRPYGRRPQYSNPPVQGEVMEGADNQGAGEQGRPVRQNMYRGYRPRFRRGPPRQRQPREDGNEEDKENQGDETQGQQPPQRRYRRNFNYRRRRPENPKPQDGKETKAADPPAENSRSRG

| Binder | binding result |
| --- | --- |
| COL1A2 promoter binding probe (dsDNA) DNA 1: CCCCCCATTCGCTCCCTCCTCTGCGCCCCCGCAGGCTC DNA 2: GAGCCTGCGGGGGCGCAGAGGAGGGAGCGAATGGGGGG | binds |
| COL1A2 promoter non-binding probe (dsDNA) DNA 1: CCCCGGATTCGCTCCCTCCTCTGCGCCCCCGCAGGCTC DNA 2: GAGCCTGCGGGGGCGCAGAGGAGGGAGCGAATCCGGGG | no binding |
